Assay: Calibration of free NIR probe/sensor by bilirubin titration (cuvette fluorometry, fit with equation 1)
Format: binding
Settings: for Qs (Rm/Ro): degree to which the probe is quenched by bilirubin binding, effect of fluorophore position
Source text: Embodiments provided herein are directed to methods of calibrating the bilirubin probes by mixing in an aqueous media the sensor with samples of bilirubin of increasing total bilirubin concentrations (BT), measuring the ratio of fluorescence intensities R of the sensor at each concentration, and determining the calibration parameters (Kd, Rm, and Ro) from the measured fluorescence by fitting with the equation (1), wherein R is the measured fluorescence ratio (Iλ1/Iλ2), where hi is the fluorescence intensity from the first fluorophore at wavelength λ1 and Iλ2 is the fluorescence intensity from the second fluorophore at wavelength λ2, both λ1 and λ2 have background subtracted, and Ro is the ratio in the absence of bilirubin. BT is the total bilirubin concentration and PT is the concentration of the sensor, r is the Iλ2/Iλ1 ratio of the bilirubin sensitive probe's fluorescence in the absence of the second fluorophore, Kd is the equilibrium dissociation constant of the sensor and Rm is the ratio R extrapolated to infinite BT. Equation (1) is used in some embodiments rather than equation (5) of U.S. Pat. No. 9,529,003 when Rm is >0.
Also described are methods for calibrating and using a bilirubin sensor described herein so that Bf concentrations can be determined in approximately 5 μl of undiluted blood samples in a single step. These small volume blood samples are applied to the disposable plastic microfluidic cartridges containing the dried bilirubin ratio sensor. The bilirubin sensor containing cartridges are preferably used for a single measurement and the calibration parameters (Kd, Rm, Ro) must be determined within a “lot” of identically manufactured cartridges. The calibration is performed by titrating a sufficient number of cartridges with aqueous samples of increasing well-defined Bf levels. Because plastics bind unbound bilirubin and because surface to volume ratio in the microfluidics channel is large, the calibration Bf samples must be highly buffered by complexes with albumin. The Bf concentrations of each complex are determined by measuring each by cuvette fluorometry using a calibrated sensor free in aqueous solutions. The free sensor is calibrated by titration with aqueous solutions of bilirubin where the concentrations of these unbound bilirubin solutions are determined by absorbance. The free probe's response (R values versus Bf concentrations) are used to determine the free sensor's calibration (Kd, Rm, Ro) (equation 1). The calibrated free sensor mixed with samples of each of the BR:HSA complexes is used to determine the Bf concentrations of each complexes by cuvette fluorometry using equation 2. These calibrated complexes are used to determine the binding parameters of the disposable cartridges including the equilibrium dissociation constant (Kd), the minimum fluorescence ratio (Rm) and the initial ratio (Ro) under defined conditions, of temperature, pH, and solution composition, suitable for blood samples. Binding isotherms are performed in aqueous buffer by measuring the change in fluorescence of the bilirubin sensor in response to increasing bilirubin concentrations (“titration data”). The set of fluorescence responses at each bilirubin concentration are fitted with an appropriate equation (“calibration equation (3)”) that correctly describes the fluorescence response as a function of the Bf concentration, the, specific spectroscopic characteristics, and the Kd.
All responder probes labeled with LICOR 700DX-maleimide and non-responder probes labeled with LICOR 800CW-maleimide probes in Tables 1 and 2, respectively have qualitatively similar dependencies on Bf. The probes differ mostly in protein expression, binding parameters (Kd, Ro and Rm) and stability. […] Although the non-responders are not characterized by bilirubin binding parameters, the emission spectrum of the 800CW-maleimide is sensitive to specific substitutions that can alter the LICOR 700DX-maleimide intensities. […]

[1] = effect of fluorophore (cysteine) position, responder probe labeled with 700DX-maleimide
[2] = free Bf sensor, fit of equation 1 (FIG. 2)

Kd [1] | Kd (free Bf sensor with non-responder Mut:SEQ ID NO:1 B-73C in aqueous buffer, excitation 660 nm, 700/805 ratio, fit of equation 1 (FIG. 2)) | Molecule | Qs (Rm/Ro) | Qs which is Rm/Ro [2] | Rm [2] | Ro [2]
14 nM | 12.4 ± 0.4 nM | 76C-C2XH11-700DXM: rIFABP mutein MGI-KR14-14R 18L 27A 38V 60R 73F 76C 106L 115R 117D 131D-C2XH11 labeled with LICOR 700DX-maleimide (protein, LICOR 700DX-maleimide label; mutated bf sensitive probe, rIFABP mutein MGI-KR14-14R 18L 27A 38V 60R 73F 76C 106L 115R 117D 131D-C2XH11 labeled with LICOR 700DX-maleimide) MGIAFDGTWRVDRNENRERFLERMGINVVARRLGAHDNLRVTITQEGNRFTVRESSNFRNIDRVFELGVDFAYSLFDGCELTGTWTMEGNRLVGRFRRVDNGRELIAVLEISGNELIRTDTYEGVEARRIFRRDRGAASHHHHHHSHRATPNTSPHHHHHHH | 0.04 | 0.139±0.007 | 0.42 | 3.02
25 nM | – | 33C-C2XH11-700DXM: rIFABP mutein MGI-KR14-14R 18L 27A 33C 38V 60R 73F 106L 115R 117D 131D-C2XH11 labeled with LICOR 700DX-maleimide (protein, C2XH11 tag; LICOR 700DX-maleimide label; mutated bf sensitive probe, rIFABP mutein MGI-KR14-14R 18L 27A 33C 38V 60R 73F 106L 115R 117D 131D-C2XH11 labeled with LICOR 700DX-maleimide) MGIAFDGTWRVDRNENRERFLERMGINVVARRLGACDNLRVTITQEGNRFTVRESSNFRNIDRVFELGVDFAYSLFDGTELTGTWTMEGNRLVGRFRRVDNGRELIAVLEISGNELIRTDTYEGVEARRIFRRDRGAASHHHHHHSHRATPNTSPHHHHHHH | 0.17 | – | – | –
13 nM | – | 98C-C2XH11-700DXM: rIFABP mutein MGI-KR14-14R 18L 27A 38V 60R 73F 98C 106L 115R 117D 131D-C2XH11 labeled with LICOR 700DX-maleimide (protein, LICOR 700DX-maleimide label; mutated bf sensitive probe, rIFABP mutein MGI-KR14-14R 18L 27A 38V 60R 73F 98C 106L 115R 117D 131D-C2XH11 labeled with LICOR 700DX-maleimide) MGIAFDGTWRVDRNENRERFLERMGINVVARRLGAHDNLRVTITQEGNRFTVRESSNFRNIDRVFELGVDFAYSLFDGTELTGTWTMEGNRLVGRFRRVDCGRELIAVLEISGNELIRTDTYEGVEARRIFRRDRGAASHHHHHHSHRATPNTSPHHHHHHH | 0.03 | – | – | –
16 nM | – | 74C-C2XH11-700DXM: rIFABP mutein MGI-KR14-14R 18L 27A 38V 60R 73F 74C 106L 115R 117D 131D-C2XH11 labeled with LICOR 700DX-maleimide (protein, C2XH11 tag; LICOR 700DX-maleimide label; mutated bf sensitive probe, rIFABP mutein MGI-KR14-14R 18L 27A 38V 60R 73F 74C 106L 115R 117D 131D-C2XH11 labeled with LICOR 700DX-maleimide) MGIAFDGTWRVDRNENRERFLERMGINVVARRLGAHDNLRVTITQEGNRFTVRESSNFRNIDRVFELGVDFAYSLFCGTELTGTWTMEGNRLVGRFRRVDNGRELIAVLEISGNELIRTDTYEGVEARRIFRRDRGAASHHHHHHSHRATPNTSPHHHHHHH | 0.15 | – | – | –
44 nM | – | 24C- C2XH11-700DXM: rIFABP mutein MGI-KR14-14R 18L 24C 27A 38V 60R 73F 106L 115R 117D 131D-C2XH11 labeled with LICOR 700DX-maleimide (protein, C2XH11 tag; LICOR 700DX-maleimide label; mutated bf sensitive probe, rIFABP mutein MGI-KR14-14R 18L 24C 27A 38V 60R 73F 106L 115R 117D 131D-C2XH11 labeled with LICOR 700DX-maleimide) MGIAFDGTWRVDRNENRERFLERMGICVVARRLGAHDNLRVTITQEGNRFTVRESSNFRNIDRVFELGVDFAYSLFDGTELTGTWTMEGNRLVGRFRRVDNGRELIAVLEISGNELIRTDTYEGVEARRIFRRDRGAASHHHHHHSHRATPNTSPHHHHHHH | 0.14 | – | – | –
29 nM | – | 29C-C2XH11-700DXM: rIFABP mutein MGI-KR14-14R 18L 27A 29C 38V 60R 73F 106L 115R 117D 131D-C2XH11 labeled with LICOR 700DX-maleimide (protein, C2XH11 tag; LICOR 700DX-maleimide label; mutated bf sensitive probe, rIFABP mutein MGI-KR14-14R 18L 27A 29C 38V 60R 73F 106L 115R 117D 131D-C2XH11 labeled with LICOR 700DX-maleimide) MGIAFDGTWRVDRNENRERFLERMGINVVARCLGAHDNLRVTITQEGNRFTVRESSNFRNIDRVFELGVDFAYSLFDGTELTGTWTMEGNRLVGRFRRVDNGRELIAVLEISGNELIRTDTYEGVEARRIFRRDRGAASHHHHHHSHRATPNTSPHHHHHHH | 0.52 | – | – | –
12 nM | – | 25C-C2XH11-700DXM: rIFABP mutein MGI-KR14-14R 18L 25C 27A 38V 60R 73F 106L 115R 117D 131D-C2XH11 labeled with LICOR 700DX-maleimide (protein, C2XH11 tag; LICOR 700DX-maleimide label; mutated bf sensitive probe, rIFABP mutein MGI-KR14-14R 18L 25C 27A 38V 60R 73F 106L 115R 117D 131D-C2XH11 labeled with LICOR 700DX-maleimide) MGIAFDGTWRVDRNENRERFLERMGINCVARRLGAHDNLRVTITQEGNRFTVRESSNFRNIDRVFELGVDFAYSLFDGTELTGTWTMEGNRLVGRFRRVDNGRELIAVLEISGNELIRTDTYEGVEARRIFRRDRGAASHHHHHHSHRATPNTSPHHHHHHH | 0.27 | – | – | –
41 nM | – | 30C-C2XH11-700DXM: rIFABP mutein MGI-KR14-14R 18L 27A 30C 38V 60R 73F 106L 115R 117D 131D-C2XH11 labeled with LICOR 700DX-maleimide (protein, C2XH11 tag; LICOR 700DX-maleimide label; mutated bf sensitive probe, rIFABP mutein MGI-KR14-14R 18L 27A 30C 38V 60R 73F 106L 115R 117D 131D-C2XH11 labeled with LICOR 700DX-maleimide) MGIAFDGTWRVDRNENRERFLERMGINVVARRCGAHDNLRVTITQEGNRFTVRESSNFRNIDRVFELGVDFAYSLFDGTELTGTWTMEGNRLVGRFRRVDNGRELIAVLEISGNELIRTDTYEGVEARRIFRRDRGAASHHHHHHSHRATPNTSPHHHHHHH | 0.11 | – | – | –
22 nM | – | 54C-C2XH11-700DXM: rIFABP mutein MGI-KR14-14R 18L 27A 38V 54C 60R 73F 106L 115R 117D 131D-C2XH11 labeled with LICOR 700DX-maleimide (protein, C2XH11 tag; LICOR 700DX-maleimide label; mutated bf sensitive probe, rIFABP mutein MGI-KR14-14R 18L 27A 38V 54C 60R 73F 106L 115R 117D 131D-C2XH11 labeled with LICOR 700DX-maleimide) MGIAFDGTWRVDRNENRERFLERMGINVVARRLGAHDNLRVTITQEGNRFTVRESSCFRNIDRVFELGVDFAYSLFDGTELTGTWTMEGNRLVGRFRRVDNGRELIAVLEISGNELIRTDTYEGVEARRIFRRDRGAASHHHHHHSHRATPNTSPHHHHHHH | 0.48 | – | – | –
25 nM | – | 97C-C2XH11-700DXM: rIFABP mutein MGI-KR14-14R 18L 27A 38V 60R 73F 97C 106L 115R 117D 131D-C2XH11 labeled with LICOR 700DX-maleimide (protein, LICOR 700DX-maleimide label; mutated bf sensitive probe, rIFABP mutein MGI-KR14-14R 18L 27A 38V 60R 73F 97C 106L 115R 117D 131D-C2XH11 labeled with LICOR 700DX-maleimide) MGIAFDGTWRVDRNENRERFLERMGINVVARRLGAHDNLRVTITQEGNRFTVRESSNFRNIDRVFELGVDFAYSLFDGTELTGTWTMEGNRLVGRFRRVCNGRELIAVLEISGNELIRTDTYEGVEARRIFRRDRGAASHHHHHHSHRATPNTSPHHHHHHH | 0.29 | – | – | –

Source: patent US20230053493A1, “ONE STEP METHODS, KITS, AND SYSTEMS FOR THE MEASUREMENT OF CONCENTRATIONS OF UNBOUND BILIRUBIN IN BIOLOGICAL FLUIDS” (priority 2019, published 2023)
